Here are results for 120 sequences from the supplement of paper PMC10126150.

± gives the standard deviation of the averaged measurements.

The test system of the data set is ATP. Nature of the data set: switch fluorescence ratio, 500 uM ATP over buffer (Cy3 cluster intensity, sum of 5 cycles each) (fold (ratio)); higher = stronger signal-on switching upon ATP binding; sequences stand for … in TCGTCGGCAGCGTCAGATGTGTATAAGAGACAGTTTTTTTTTTTTTTTTTTTTTTTTT…TC. The conditions noted are these: aptamer strand: ATP DNA aptamer (quencher-CACCTGGGGGAGTATTGCGGAGGAAGG + anchor), 100 nM annealed; ATP concentration: 500 uM. An outline of the steps: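 After annealing to 100 nM quencher-labelled ATP aptamer, Cy3-labelled switching-strand clusters on a modified Illumina MiSeq flow-cell were imaged in selection buffer. A second image followed after 15 min with 500 uM ATP at 22 °C, and five such buffer/ATP cycles were done, each separated by NaOH stripping and re-annealing. The fluorescence ratio, averaged per switch-domain sequence, is summed target-cycle over summed buffer-cycle Cy3 intensity per cluster, with clusters outside 100-1000 RFU excluded.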
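Also: ATP exposure 15 min at 22 °C before imaging.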

Regarding TTAAATCATT, the switch fluorescence ratio amounted to 1.014 ± 0.0099. TTAAATCGTG: the switch fluorescence ratio is 1.01 ± 0.054. For the sequence TTAAATCGTT, the switch fluorescence ratio was 1.036 ± 0.0076.

With TTAAATGGGG, the switch fluorescence ratio came to 0.978 ± 0.011. Take TTAAATTAAT: the switch fluorescence ratio was determined as 0.976 ± 0.047. As for TTAAATTTGC, the figure is 1.03 ± 0.011; as for TTAACACGGA, 1.01 ± 0.019; as for TTAACAGGGG, 1.33 ± 0.26. With TTAACCCTTT, the switch fluorescence ratio amounted to 1.02 ± 0.021. As for TTAACCGGGT, the switch fluorescence ratio stood at 1.01 ± 0.057. Consider TTAACGTAGA, for which the switch fluorescence ratio stood at 1.04 ± 0.015. Turning to TTAACTGGTA, the switch fluorescence ratio came to 0.9904 ± 0.0016. Turning to TTAACTGTTT, the switch fluorescence ratio was 0.992 ± 0.019. For TTAACTTGGG, the switch fluorescence ratio is 0.976 ± 0.013. As for TTAACTTTCA, the figure is 1.04 ± 0.029; as for TTAAGAAATT, 1.01 ± 0.048. On to TTAAGAATGC, for which the switch fluorescence ratio is 1.07 ± 0.12. In the case of TTAAGAGGTA, the switch fluorescence ratio turned out to be 1.002 ± 0.0039. As to TTAAGATCAT, the switch fluorescence ratio amounted to 0.969 ± 0.041. In the case of TTAAGGAATT, the switch fluorescence ratio worked out at 0.999 ± 0.036. For the sequence TTAAGGACGT, the switch fluorescence ratio came to 0.984 ± 0.016. Take TTAAGGAGCG: the switch fluorescence ratio was found to be 1.04 ± 0.016.

Regarding TTAAGGCAA, the switch fluorescence ratio worked out at 1.125 ± 0.0087. Take TTAAGGCGTT: the switch fluorescence ratio came out at 0.9791 ± 0.0071. TTAAGGCTAT: the switch fluorescence ratio is 1.009 ± 0.0065.

Take TTAAGGGAAT: the switch fluorescence ratio is 1 ± 0.011. Regarding TTAAGGGACC, the switch fluorescence ratio was found to be 1.022 ± 0.0089. With TTAAGGGACG, the switch fluorescence ratio was determined as 0.996 ± 0.11. Consider TTAAGGGATC, for which the switch fluorescence ratio was determined as 0.957 ± 0.038. TTAAGGGATG: the switch fluorescence ratio came to 1.03 ± 0.043. Consider TTAAGGGATT, for which the switch fluorescence ratio worked out at 0.993 ± 0.032. Turning to TTAAGGGCAA, the switch fluorescence ratio was found to be 1.06 ± 0.013. In the case of TTAAGGGGCT, the switch fluorescence ratio is 1.01 ± 0.018. Next, TTAAGGGTCC: 0.984 ± 0.061; TTAAGGTTGC: 0.989 ± 0.019; TTAAGTAAGG: 1.03 ± 0.016.

Turning to TTAAGTACGG, the switch fluorescence ratio was 1.3 ± 0.016.

As to TTAAGTAGGA, the switch fluorescence ratio is 1 ± 0.017. With TTAAGTAGTA, the switch fluorescence ratio amounted to 0.9679 ± 0.0025. As for TTAAGTCAGT, the figure is 0.9717 ± 0.005. Next, TTAAGTGAAT: 0.979 ± 0.066; TTAAGTGAC: 1.06 ± 0.028; TTAAGTGCTC: 0.983 ± 0.031. Take TTAAGTGGGG: the switch fluorescence ratio was found to be 1.02 ± 0.011. In the case of TTAAGTGGTG, the switch fluorescence ratio is 1.01 ± 0.017.

TTAAGTGTAA: the switch fluorescence ratio came out at 0.9697 ± 0.0036.

For the sequence TTAAGTTGAT, the switch fluorescence ratio was 0.988 ± 0.033. With TTAAGTTTAC, the switch fluorescence ratio came out at 1.01 ± 0.038. For TTAATAAAAA, the switch fluorescence ratio worked out at 0.985 ± 0.028. TTAATAAGGG: the switch fluorescence ratio amounted to 1 ± 0.024. As to TTAATACTGT, the switch fluorescence ratio is 1.03 ± 0.016. Regarding TTAATAGTGG, the switch fluorescence ratio is 1.03 ± 0.073. Next, TTAATAGTGT: 1 ± 0.013; TTAATATTGT: 1.029 ± 0.0062; TTAATCCCCC: 1.04 ± 0.042. In the case of TTAATCCCGT, the switch fluorescence ratio worked out at 1.04 ± 0.048.

As to TTAATCGTGC, the switch fluorescence ratio is 0.98 ± 0.043. For the sequence TTAATCTGAG, the switch fluorescence ratio was determined as 1.02 ± 0.012. Next, TTAATGCTAT: 0.9836 ± 0.0043; TTAATGGGGC: 1.01 ± 0.061; TTAATGGGGT: 1 ± 0.039. As to TTAATGGTTA, the switch fluorescence ratio was 1.02 ± 0.029. Consider TTAATGTTGT, for which the switch fluorescence ratio was 1 ± 0.035. As for TTAATTCATG, the switch fluorescence ratio was found to be 1.01 ± 0.017. TTAATTGGGG: the switch fluorescence ratio worked out at 1.06 ± 0.1. On to TTAATTTATC, for which the switch fluorescence ratio is 0.9982 ± 0.0026.

As for TTAATTTGGT, the switch fluorescence ratio was 0.971 ± 0.03. Regarding TTACAAGGGC, the switch fluorescence ratio is 1.013 ± 0.0087. In the case of TTACAAGTTT, the switch fluorescence ratio amounted to 1.14 ± 0.19. Next, TTACACAGGT: 1.12 ± 0.067; TTACAGCTAG: 1.01 ± 0.056. Turning to TTACAGGGG, the switch fluorescence ratio is 1.18 ± 0.027. Take TTACAGGTTC: the switch fluorescence ratio was 1.031 ± 0.0019. As for TTACAGTTCA, the switch fluorescence ratio came out at 1.026 ± 0.0058. For TTACATGTTG, the switch fluorescence ratio is 1.04 ± 0.04. Next, TTACCATTAG: 0.965 ± 0.011; TTACCCCGTG: 1.13 ± 0.022; TTACCGGGCA: 1.033 ± 0.0093. Turning to TTACCGGGCT, the switch fluorescence ratio is 1.051 ± 0.004. As for TTACCTTTCT, the figure is 1.64 ± 0.64; as for TTACGAAAAG, 1.08 ± 0.14.

On to TTACGAAACG, for which the switch fluorescence ratio amounted to 1.08 ± 0.045. Regarding TTACGAAAGA, the switch fluorescence ratio worked out at 1.07 ± 0.032.

On to TTACGATGTG, for which the switch fluorescence ratio turned out to be 1.018 ± 0.0091. TTACGGATTC: the switch fluorescence ratio turned out to be 1.39 ± 0.5. As for TTACGGGAAT, the figure is 1.08 ± 0.1; as for TTACGGGGGA, 1.03 ± 0.072. On to TTACGGGTAT, for which the switch fluorescence ratio was 1.01 ± 0.039. Next, TTACGGGTGC: 1.19 ± 0.033; TTACGGTATA: 1.17 ± 0.038. Turning to TTACGTAGAT, the switch fluorescence ratio amounted to 1.12 ± 0.077. Turning to TTACGTGCTG, the switch fluorescence ratio is 0.9806 ± 0.0083. TTACGTGGTT: the switch fluorescence ratio came to 1.07 ± 0.026.

Take TTACTAAGGG: the switch fluorescence ratio came out at 1.04 ± 0.04. Consider TTACTAGATG, for which the switch fluorescence ratio was 1.02 ± 0.021.

Regarding TTACTATGTA, the switch fluorescence ratio amounted to 1.02 ± 0.019. For the sequence TTACTGAGGT, the switch fluorescence ratio came out at 0.992 ± 0.017. In the case of TTACTGATCG, the switch fluorescence ratio came to 1.025 ± 0.0073. Next, TTACTGCGGT: 1.014 ± 0.0034; TTACTGCTCG: 1.01 ± 0.03; TTACTGTGTT: 1 ± 0.034. Turning to TTACTTAGGG, the switch fluorescence ratio stood at 1.14 ± 0.17. In the case of TTACTTATTT, the switch fluorescence ratio was determined as 1.04 ± 0.035.

Turning to TTACTTCATA, the switch fluorescence ratio came out at 1.021 ± 0.0045.

Turning to TTACTTGAAT, the switch fluorescence ratio came out at 0.969 ± 0.039. Turning to TTACTTGGGA, the switch fluorescence ratio was determined as 1 ± 0.012. Turning to TTACTTTATT, the switch fluorescence ratio amounted to 1.05 ± 0.053. Regarding TTACTTTTAC, the switch fluorescence ratio was 1.13 ± 0.14. TTACTTTTGC: the switch fluorescence ratio was 1.01 ± 0.065.

As for TTAGAAAAGG, the switch fluorescence ratio was 1 ± 0.032.

TTAGAACACA: the switch fluorescence ratio came out at 0.983 ± 0.0063.

Consider TTAGAAGGGA, for which the switch fluorescence ratio stood at 1.01 ± 0.056.

For the sequence TTAGACGTTC, the switch fluorescence ratio is 0.99809 ± 0.00032. In the case of TTAGAGATTC, the switch fluorescence ratio was determined as 0.961 ± 0.031. Regarding TTAGAGCTGG, the switch fluorescence ratio was 1.01 ± 0.027. As to TTAGAGCTTC, the switch fluorescence ratio was found to be 1.01 ± 0.038. With TTAGAGGATT, the switch fluorescence ratio stood at 1.004 ± 0.007. For TTAGAGGGA, the switch fluorescence ratio came out at 1 ± 0.047. As for TTAGAGGGGA, the figure is 0.985 ± 0.031; as for TTAGAGGGTA, 0.9736 ± 0.0085.
